Consider 2 molecules from paper PMC3926522.

A word on the Kd: it is the equilibrium constant for the complex coming apart. Low values mean higher affinity, high ones lower affinity.

The target in data set [1] is T1, thrombin (human, UniProt P00734;P00734 315-363;364-622). The experiment in a line: whispering gallery mode microsphere resonator.
The target of data set [2] is T1, thrombin. Kind of data set: whispering gallery mode microsphere resonator. This is another data set of the same source.

B1: anti-thrombin aptamer oligonucleotide (structured_DNA)
DNA: CCAACCCAACGGTTGGTGTGGTTGG
modifications: 5' amino
In the data set with thrombin [1], B1 displayed a Kd of about 1000 nM.

B2: non-thrombin (non-aptamer) oligonucleotide (ssDNA)
DNA: TATGAATTCAATCCGTCGAGCAGAGTT
modifications: 5' amino
Consider B2, for which, in the data set with thrombin [2], the binding result is on record as “no binding”.
